Fewer inactive variants are shown than the library holds.
B1: TPR 5TU (parent)
chain: GGAUCUUCUCGAUCUAACAAAAAAGACAAAUCUGCCACAAAGCUUGAGAGCAUCUUCGGAUGCAGAGGCGGCAGCCUUCGGUGGCGCGAUAGCGCCAACGUUCUCAACUAUGACACGCAAAACGCGUGCUCCGUUGAAUGGAGUUUAUCAUG

Variants of: B1
Assay: polymerase ribozyme fitness, log enrichment relative to wild type (log ratio); higher = more active; in vitro selection for triplet polymerase activity
Outline: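 Mutant libraries for each subunit of a heterodimeric triplet polymerase ribozyme were made by PCR and then transcribed. Each library underwent one round of in vitro selection in triplicate: annealing with a biotinylated primer, the partner subunit and triplets, frozen incubation at −7 °C, gel excision of extended constructs, streptavidin-bead capture and RT-PCR. Input and output libraries were Illumina-sequenced, and only genotypes with ≥10 input reads and ≥1 read per output were kept. Fitness is the logarithm, base 2, of genotype enrichment over wild-type enrichment, computed from inverse-variance-weighted replicate averages.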

Row | Variant | polymerase ribozyme fitness (log ratio)
1 | GGAUCUUCUCGAUCUAACAAAAAAGACAAAUCUGCCACAAAGCUUGAGAGCAUCUGCGGAUGCAGAGGCGGCAGCCUUCGGUGGCGCGAUAGCGCCAACGUUCUCAACUAUGACACGUAAAAUGCGUGCUCCGUUGAAUGGAGUUUAUCAUG [U56G C118U C123U] | -0.604
2 | GGAUCUUCUCGAUCUAACAAAAAAGACAAAUCUGCCACAAAGCUUGAGAGCAUCUGCGGAUUCAGAGGCGGCAGCCUUCGGUGGAGCGAUAGCGCCAACGUUCUCAACUAUGACACGCCAAACGCGUGCUUCGUUGAAUGGAGUUUAUCAUG [U56G G62U C85A A119C C131U] | -1.78
3 | GGAUCUUCUCGAUCUAACAAAAAAGACAAAUCUGCCACAAAGCUUGAGAGCAUCUUAGGAUGCAGAGGAGGUAGCCUUCGGUGGAGCGAUAGCGCCAACGUUCUCAACUAUGACACGCAAAACGCGUGCUCCGUUGAAUGGAGUUUAUCAUG [C57A C69A C72U C85A] | -3.55
4 | GGAUCUUCUCGAUCUAACAAAAAAGACAAAUCUGCCACAAAGCUUGAGAGCAUCUUAGGAUGCAGAGGCGGCGGCCUUCGGUGGCGCGAUAGCGCCAACGUUCUCAACUAUGACACGCAAAACGCGUGCUCCGUUGAAUGGAGUUUAUCAUG [C57A A73G] | 0.866
5 | GGAUCUUCUCGAUCUAACAAAAAAGACAAAUCUGCCACAAAGCUUGAGAGCAUCUUAGGAUGCAGAGGCGGCAGCCUUCGGUGGCGCGAUAGCGCCAACGUUCUUAACUAUGACACGCAGAACGCGUGCUCCGUUGAAUGGAGUUUAUCAUG [C57A C105U A120G] | 0.486
6 | GGAUCUUCUCGAUCUAACAAAAAAGACAAAUCUGCCACAAAGCUUGAGAGCAUCUUAGGAUGCAGAGGCGGCAGCCUUCGGUGGCGCGAUAGCGCCAACGUUCUCAACUAUGGCACGCAAAACGCGUGCUCCGUUGAAUGGAGUUUAUCAUG [C57A A113G] | -1.32
7 | GGAUCUUCUCGAUCUAACAAAAAAGACAAAUCUGCCACAAAGCUUGAGAGCAUCUUAGGAUGCAGAGGCGGCAGCCUUCGGUGGCGCGAUAGCGCCAACGUUCUCAACUAUGACACGCAAAACGCGUGUUUCGCUGAAUGGAGUUUAUCAUG [C57A C129U C131U U134C] | 1.02
8 | GGAUCUUCUCGAUCUAACAAAAAAGACAAAUCUGCCACAAAGCUUGAGAGCAUCUGCGGAGGCAGAGGCGGCAGCCUUCGGUGGCGCGAUAGCGCCAACGUUCUCAACUAUGACACGCAAAACGCGUUCUCCGUUGAAUGGAGUUUAUCAUG [U56G U61G G128U] | -3.73
9 | GGAUCUUCUCGAUCUAACAAAAAAGACAAAUCUGCCACAAAGCUUGAGAGCAUCUGCGGAUGCAGAGGCGGCAGCCUUCGGUGGCGCGAUAGCGCCAACGUUCUCAACUAUGACACGCAAAACGCGUGCUCCGUUGAAUGGAGUUUAUCAUG [U56G] | -0.573
10 | GGAUCUUCUCGAUCUAACAAAAAAGACAAAUCUGCCACAAAGCUUGAGAGCAUCUGCGGAUGCAGAGGCGGCAGCCUUCGGUGGCGCGAUAGCGCAAACGUUCUCAACUAUGACACGCAAAACGCGUGCUCCGUUGAAUGGAGUUUAUCAUG [U56G C96A] | -1.15
11 | GGAUCUUCUCGAUCUAACAAAAAAGACAAAUCUGCCACAAAGCUUGAGAGCAUCUGCGGAUGCAGAGGCGGCAGCCUUCGGUGGCGCGAUAGCGCCAACGUUCUCAACUAUGACACGCCAAACGCGUGCUCCGUUGAAUGGAGUUGAUCAUG [U56G A119C U146G] | -1.1
12 | GGAUCUUCUCGAUCUAACAAAAAAGACAAAUCUGCCACAAAGCUUGAGAGCAUCUGCGGGUGCAGAGGCGGCAGCCUUCGGUGGCGCGAUAGCGCCAACGUUCUCAACUAUGACACGCAAAACGCGUGCUCCGUUGAAUGGAGUUUAUCAUG [U56G A60G] | -0.515
13 | GGAUCUUCUCGAUCUAACAAAAAAGACAAAUCUGCCACAAAGCUUGAGAGCAUCUCCGGAUGCAGAGGCGGCAGCCUUCGGUUGCGCGAUAGCGCCAACGUUCUCAACUAUGACACGCAAAACGCGUGCUCCGUUGAAUGGAGUUUAUCAUG [U56C G83U] | -0.525
14 | GGAUCUUCUCGAUCUAACAAAAAAGACAAAUCUGCCACAAAGCUUGAGAGCAUCUGCGGAUCCAGAGGCGGCAGCCUUCGGUGGCGCGAUAGCGCCAACGUUCUCAACUAUGACACGCACAACGCGUGCUCAGUUGAAGGGAGUUUAUCAUG [U56G G62C A120C C132A U139G] | ≤ -4.2
15 | GGAUCUUCUCGAUCUAACAAAAAAGACAAAUCUGCCACAAAGCUUGAGAGCAUCUGCGGAUGCAGAGGCGGCAGCCUUCGGUGGCGCGAUAGCGCCAACGUUCUCAACUAUGACACGCAAAACGCGUGCUCCGUUGAAUGGAGAUUAUCAUG [U56G U144A] | -0.473
16 | GGAUCUUCUCGAUCUAACAAAAAAGACAAAUCUGCCACAAAGCUUGAGAGCAUCUUAGGAUGCAGAGGCGGCAGCCUUCGGUGGUGCGAUAGCGCCAACGUUCUCAACUAUGACACGCAAAACGCGUGCUCCGUUGAAUGGAGUUCAUCAUG [C57A C85U U146C] | -0.426
17 | GGAUCUUCUCGAUCUAACAAAAAAGACAAAUCUGCCACAAAGCUUGAGAGCAUCUUAGGAUGCAGAGGCGGCAGCCUUCGGUGGCGCGAUGGCGCCAACGUUCUCAACUAUGACACGCAAAACGCGUGCUCGGUUGAAUGGAGUUUAUCAUG [C57A A91G C132G] | -4.05
18 | GGAUCUUCUCGAUCUAACAAAAAAGACAAAUCUGCCACAAAGCUUGAGAGCAUCUGUGGAUUCAGGGGCGGCAGUCUUCGGUUGCGCGAUAGCGCCAACGUUCUCAACUAUGACACGCAAAACGCGUGCUCCGUUGAAUGGAGUUUAUCAUG [U56G C57U G62U A66G C75U G83U] | ≤ -4.2
19 | GGAUCUUCUCGAUCUAACAAAAAAGACAAAUCUGCCACAAAGCUUGAGAGCAUCUUAGGAUGCAGAGGCGGCAGCCUUCGGUGGUGCGAUAGCGCCAACGUUCUCAACUAUGACACGCAAAACGCGUGCUCCGUUGAAUGGAAUUUAUCAUG [C57A C85U G143A] | -0.323

— the RNAGym collection of RNA variant scans (doi:10.1073/pnas.2313332121)
